Reference: patent US20050065076

Tested on: C100Flag recombinant protein (Met + APP695 C-terminal fragment + Flag)
Sequence (chain, as listed by the source): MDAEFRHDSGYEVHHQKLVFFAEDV

In the case of “γ3 protease in a membrane preparation from HeLa S3 cells”, the “γ-secretase activity (cleavage of the substrate, Aβ products detected by ECL)” value is reported as “significant γ-secretase activity remains at pH 6.0 (the pH optimum for γ-secretase activity associated with γ3 protease)”.
